# ± gives the uncertainty stated by the source.
# Test: self-splicing fitness, log relative to wild type (ln ratio); higher = more splicing; Tetrahymena group I intron in knt gene, E. coli kanamycin selection, DiMSum; sequences stand for … in CUCUCU…GGAGGGAAAAGUUAUCAGGCAUGCACCUGGUAGCUAGUCUUUAAACCAAUAGAUUGCAUCGGUUUAAAAGGCAAGACCGUCAAAUUGCGGGAAAGGGGUCAACAGCCGUUCAGUACCAAGUCUCAGGGGAAACUUUGAGAUGGCCUUGCAAAGGGUAUGGUAAUAAGCUGACGGACAUGGUCCUAACCACGCAGCCAAGUCCUAAGUCAACAGAUCUUCUGUUGAUAUGGAUGCAGUUCACAGACUAAAUGUCGGUCGGGGAAGAUGUAUUCUUCUCAUAAGAUAUAGUCGGACCUCUCCUUAAUGGGAGCUAGCGGAUGAAGUGAUGCAACACUGGAGCCGCUGGGAACUAAUUUGUAUGCGAAAGUAUAUUGAUUAGUUUUGGAGUACUCGUGGUCG
# Procedure, shortened: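 DiMSum derived fitness as the error-weighted combination of fold changes across replicates, kanamycin versus no kanamycin, normalised to wild type. E. coli BL21(DE3) held the library, which randomised all eight P1ex-region intron nucleotides within the knt kanamycin-resistance gene on pET-22b(+). Six replicate transformations grew overnight at 37°C or 30°C on LB agar with or without 25 μg/mL kanamycin, also containing 100 μg/mL carbenicillin, 50 μM IPTG and 0.2% rhamnose, and pooled colonies were amplicon-sequenced on an Illumina HiSeq 2500.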
Sequence,self-splicing fitness (ln) (30 °C),self-splicing fitness (ln) (37 °C)
AGACAGCAAUAUUACGUAGA,-2.6 ± 0.081,-2.5 ± 0.11
UAUAAGCAAUAUUACGGGAA,-2.77 ± 0.2,-1.5 ± 0.18
CCCGAGCAAUAUUACGGAGC,-1.75 ± 0.16,-2.77 ± 0.36
CUACAGCAAUAUUACGAGAU,-4.21 ± 0.37,-2.96 ± 0.28
AGGGAGCAAUAUUACGAUUA,-2.12 ± 0.18,-2.51 ± 0.35
UAUGAGCAAUAUUACGGGCU,–,-1.8 ± 0.47
GGGAAGCAAUAUUACGAAUA,–,-1 ± 0.2
AUAAAGCAAUAUUACGACCC,0.352 ± 0.21,0.804 ± 0.26
CAUAAGCAAUAUUACGAGCU,-4 ± 0.34,-2.76 ± 0.3
CAGGAGCAAUAUUACGCUAC,-1.78 ± 0.4,–
UGUUAGCAAUAUUACGUAUU,–,-2.12 ± 0.3
AGCCAGCAAUAUUACGUCCA,-2.69 ± 0.18,-1.99 ± 0.2
CGCAAGCAAUAUUACGGCAU,-1.63 ± 0.071,-0.555 ± 0.079
AGUAAGCAAUAUUACGGGGU,-3.24 ± 0.22,-2.46 ± 0.26
CCACAGCAAUAUUACGGUCC,-2.75 ± 0.32,-2.32 ± 0.32
AUUGAGCAAUAUUACGUUUA,-2.83 ± 0.19,-2.98 ± 0.27
UUACAGCAAUAUUACGCUUG,-1.23 ± 0.12,-0.126 ± 0.13
AAUCAGCAAUAUUACGAAUA,0.443 ± 0.16,-0.266 ± 0.12
ACACAGCAAUAUUACGACGA,-0.721 ± 0.074,-0.406 ± 0.081
UGGCAGCAAUAUUACGACCA,-0.399 ± 0.2,-0.654 ± 0.2
GGUUAGCAAUAUUACGAAUA,-1.94 ± 0.19,-1.85 ± 0.26
UACGAGCAAUAUUACGUUUU,-3.66 ± 0.17,-2.4 ± 0.16

Sequence,self-splicing fitness (ln) (30 °C),self-splicing fitness (ln) (37 °C)
AUCUAGCAAUAUUACGGGUU,-3.51 ± 0.15,-3.09 ± 0.21
UGUGAGCAAUAUUACGGAUG,-3.1 ± 0.17,-1.52 ± 0.23
CCAUAGCAAUAUUACGGUGC,-3.09 ± 0.17,-2.61 ± 0.25
ACACAGCAAUAUUACGCUGA,-2.42 ± 0.096,-1.47 ± 0.083
UACCAGCAAUAUUACGCCCG,-0.0448 ± 0.11,-0.0962 ± 0.14
CUCCAGCAAUAUUACGGGAC,-2.79 ± 0.11,-2.17 ± 0.14
UCACAGCAAUAUUACGCAGG,-3.13 ± 0.13,-1.52 ± 0.11
CCGCAGCAAUAUUACGGCUG,-3.8 ± 0.29,-2.45 ± 0.27
CCCGAGCAAUAUUACGACAC,-3.41 ± 0.4,–
UGAGAGCAAUAUUACGUCUC,-1.78 ± 0.38,–
AAUAAGCAAUAUUACGCCGC,-2.65 ± 0.46,-1.49 ± 0.28
UCUGAGCAAUAUUACGUCUG,-1.01 ± 0.11,-1.4 ± 0.14
CUCUAGCAAUAUUACGUCAC,-2.66 ± 0.19,–
AUUAAGCAAUAUUACGCUCU,-0.588 ± 0.18,0.11 ± 0.16
AGAAAGCAAUAUUACGCGCA,-0.218 ± 0.094,0.174 ± 0.11
GAGUAGCAAUAUUACGUAGA,-4.32 ± 0.28,-2.18 ± 0.19
GAUCAGCAAUAUUACGGGCU,-1.98 ± 0.085,-1.4 ± 0.1
CAUAAGCAAUAUUACGUAAA,-3.55 ± 0.25,-2.11 ± 0.17
UUCUAGCAAUAUUACGAUAC,-2.08 ± 0.38,-2.64 ± 0.41
UCUUAGCAAUAUUACGGCUU,-3.65 ± 0.41,-2.63 ± 0.48
GUUCAGCAAUAUUACGGGGU,-3.36 ± 0.17,-1.73 ± 0.16
UGGUAGCAAUAUUACGCCCA,-0.775 ± 0.21,-1.14 ± 0.23

# Reference: the supplement of paper PMC7877785
